From the DeepSol protein solubility set

experiment: soluble on expression in E. coli; label from the status in PepcDB or PDB records

Sequence	soluble on expression in E. coli
GSHNATSGHEDMPVERILEAELAVEPKTESYGDMNMENSTNDPVTNICHAADKQLFTLVEWAKRIPHFSDLTLEDQVILLRAGWNELLIASFSHRSVSVQDGILLATGLHVHRSSAHSAGVGSIFDRVLTELVSKMKDMQMDKSELGCLRAIVLFNPDAKGLSNPSEVETLREKVYATLEAYTKQKYPEQPGRFAKLLLRLPALRSIGLKCLEHLFFFKLIGDTPIDTFLMEMLETPLQIT	soluble
GSMIKLFSLKQQKKEEEKGSSKKASAAQLRIQKDINELNLPKTCDISFSDPDDLLNFKLVICPDEGFYKSGKFVFSFKVGQGYPHDPPKVKCETMVYHPNIDLEGNVALNILREDWKPVLTINSIIYGLQYLFLEPNPEDPLNKEAAEVLQNNRRLFEQNVQRSMRGGYIGSTYFERCLK	soluble
GSRLNPVQLELLNKLHLETKLNAEYTFMLAEQSNWNYEVAIKGFQSSMNGIPREAFVQF	soluble
GSSGSSGMEAVLNELVSVEDLKNFERKFQSEQAAGSVSKSTQFEYAWCLVRSKYNEDIRRGIVLLEELLPKGSKEEQRDYVFYLAVGNYRLKEYEKALKYVRGLLQTEPQNNQAKELERLIDKAMKKSGPSSG	soluble
GSSHCRFYENKYPEIDDIVMVNVQQIAEMGAYVKLLEYDNIEGMILLSELSRRRIRSIQKLIRVGKNDVAVVLRVDKEKGYIDLSKRRVSSEDIIKCEEKYQKSKTVHSILRYCAEKFQIPLEELYKTIAWPLSRKFGHAYEAFKLSIIDETVWEGIEPPSKDVLDELKNYISKR	soluble
GSSHHHHHHDYDIPTTENLYFQGSAHRPRWTLSQVTELFEKPLLDLLFEAQQVHRQHFDPRQVQVSTLLSIKTGACPEDCKYCPQSSRYKTGLEAERLMEVEQVLESARKAKAAGSTRFCMGAAWKNPHERDMPYLEQMVQGVKAMGLEACMTLGTLSESQAQRLANAGLDYYNHNLDTSPEFYGNIITTRTYQERLDTLEKVRDAGIKVCSGGIVGLGETVKDRAGLLLQLANLPTPPESVPINMLVKVKGTPLADNDDVDAFDFIRTIAVARIMMPTSYVRLSAGREQMNEQTQAMCFMAGANSIFYGCKLLTTPNPEEDKDLQLFRKLGLNPQQTAVLAGDNEQQQRLEQALMTPDTDEYYNAAAL	soluble
GSSHHHHHHMLKIGSHVSMSGKKMLLAASEEAVSYGATTFMIYTGAPQNTRRKPIEELNIEAGRKHMEQNGIEEIIIHAPYIINVGNTTKPETFQLGVDFLRMEIERTSALGVAKQIVLHPGAHVGAGADAGIQQIIKGLNEVLTPDQTVNIALETMAGKGTECGRSFEEIAKIIDGVKYNEKLSVCFDTCHTHDAGYDIVNNFDGVLNEFDKIVGIDRLQVLHINDSKNVRGAGKDRHENIGFGHIGYKALHHIVHHPQLTHVPKILETPYVGEDKKDKKPPYKLEIEMLKNGTFDEGLLEKIKAQ	soluble
GSSHHHHHHSSGRENLYFQGHMARPGMERWRDRLALVTGASGGIGAAVARALVQQGLKVVGCARTVGNIEELAAECKSAGYPGTLIPYRCDLSNEEDILSMFSAIRSQHSGVDICINNAGLARPDTLLSGSTSGWKDMFNVNVLALSICTREAYQSMKERNVDDGHIININSMSGHRVLPLSVTHFYSATKYAVTALTEGLRQELREAQTHIRATCISPGVVETQFAFKLHDKDPEKAAATYEQMKCLKPEDVAEAVIYVLSTPAHIQIGDIQMRPTGS	soluble
GSSSSLPLYNQQVGDCCIIRVSLDVDNGNMYKSILVTSQDKAPTVIRKAMDKHNLDEDEPEDYELLQIISEDHKLKIPENANVFYAMNSAANYDFILKKR	soluble
GTKQEKTILNMARFIRSQALTILEKANELDADEIADIAESIHDHADEIYRSALARFGDDGENL	soluble
GVALGATRVIYPEGQKQVQLAVTNNDDKSSYLIQSWIENAEGKKDARFVITPPLFSMQGKKENTLRIIDATNGQMPEDRESLFWVNVKAIPAMDKAKTGENYLQFAIVSRIKLLYRPQGLVIPPEQAPGKLEFTRENGGLTLFNPTPYYLTVTDLKAGNKSLENTMVPPQGKVTVNIPGGYTGGDITYKTINDYGALTEQVRGVVK	soluble
GVDGCGSVTLAYDGFNVNLLHSKVSDSLIPSEFQGEQGSVLVDMIATGRGVERILRGEEKETLTLPQTENHMFYEAEAFAKQLKLGVIDEQMKQRSLTVAKVLTEVRKQTGVVFPADQ	not soluble
